Laboratory results: US20210388087A1 (Chugai, published 2021)

B1: CE115HA000/GLS3000 S27eP (antibody, IgG1, name in Kabat numbering, V domains shown)
VH: QVQLVESGGGVVQPGRSLRLSCAASGFTFSNAWMHWVRQAPGKGLEWVAQIKAKSNNYATYYAESVKGRFTISRDDSKNSLYLQMNSLKTEDTAVYYCRYVHYGAYYGVDAWGQGTTVTVSS
VL: DIVMTQSPLSLPVTPGEPASISCRSSQSLVHPNRNTYLHWYQQKPGQAPRLLIYKVSNRFSGVPDRFSGSGSGTDFTLKISRVEAEDVGVYYCGQGTQVPYTFGQGTKLEIK
notes: one-arm IgG1
B2: CE115HA000/GLS3000 S27eW (antibody, IgG1, name in Kabat numbering, V domains shown)
VH: QVQLVESGGGVVQPGRSLRLSCAASGFTFSNAWMHWVRQAPGKGLEWVAQIKAKSNNYATYYAESVKGRFTISRDDSKNSLYLQMNSLKTEDTAVYYCRYVHYGAYYGVDAWGQGTTVTVSS
VL: DIVMTQSPLSLPVTPGEPASISCRSSQSLVHWNRNTYLHWYQQKPGQAPRLLIYKVSNRFSGVPDRFSGSGSGTDFTLKISRVEAEDVGVYYCGQGTQVPYTFGQGTKLEIK
notes: one-arm IgG1
B3: CE115HA000/GLS3000 S52A (antibody, IgG1, name in Kabat numbering, V domains shown)
VH: QVQLVESGGGVVQPGRSLRLSCAASGFTFSNAWMHWVRQAPGKGLEWVAQIKAKSNNYATYYAESVKGRFTISRDDSKNSLYLQMNSLKTEDTAVYYCRYVHYGAYYGVDAWGQGTTVTVSS
VL: DIVMTQSPLSLPVTPGEPASISCRSSQSLVHSNRNTYLHWYQQKPGQAPRLLIYKVANRFSGVPDRFSGSGSGTDFTLKISRVEAEDVGVYYCGQGTQVPYTFGQGTKLEIK
notes: one-arm IgG1
B4: CE115HA000/GLS3000 S27eQ (antibody, IgG1, name in Kabat numbering, V domains shown)
VH: QVQLVESGGGVVQPGRSLRLSCAASGFTFSNAWMHWVRQAPGKGLEWVAQIKAKSNNYATYYAESVKGRFTISRDDSKNSLYLQMNSLKTEDTAVYYCRYVHYGAYYGVDAWGQGTTVTVSS
VL: DIVMTQSPLSLPVTPGEPASISCRSSQSLVHQNRNTYLHWYQQKPGQAPRLLIYKVSNRFSGVPDRFSGSGSGTDFTLKISRVEAEDVGVYYCGQGTQVPYTFGQGTKLEIK
notes: one-arm IgG1
B5: CE115HA000/GLS3000 S27eY (antibody, IgG1, name in Kabat numbering, V domains shown)
VH: QVQLVESGGGVVQPGRSLRLSCAASGFTFSNAWMHWVRQAPGKGLEWVAQIKAKSNNYATYYAESVKGRFTISRDDSKNSLYLQMNSLKTEDTAVYYCRYVHYGAYYGVDAWGQGTTVTVSS
VL: DIVMTQSPLSLPVTPGEPASISCRSSQSLVHYNRNTYLHWYQQKPGQAPRLLIYKVSNRFSGVPDRFSGSGSGTDFTLKISRVEAEDVGVYYCGQGTQVPYTFGQGTKLEIK
notes: one-arm IgG1
B6: CE115HA000/GLS3000 S27eR (antibody, IgG1, name in Kabat numbering, V domains shown)
VH: QVQLVESGGGVVQPGRSLRLSCAASGFTFSNAWMHWVRQAPGKGLEWVAQIKAKSNNYATYYAESVKGRFTISRDDSKNSLYLQMNSLKTEDTAVYYCRYVHYGAYYGVDAWGQGTTVTVSS
VL: DIVMTQSPLSLPVTPGEPASISCRSSQSLVHRNRNTYLHWYQQKPGQAPRLLIYKVSNRFSGVPDRFSGSGSGTDFTLKISRVEAEDVGVYYCGQGTQVPYTFGQGTKLEIK
notes: one-arm IgG1
B7: CE115HA000/GLS3000 S27eT (antibody, IgG1, name in Kabat numbering, V domains shown)
VH: QVQLVESGGGVVQPGRSLRLSCAASGFTFSNAWMHWVRQAPGKGLEWVAQIKAKSNNYATYYAESVKGRFTISRDDSKNSLYLQMNSLKTEDTAVYYCRYVHYGAYYGVDAWGQGTTVTVSS
VL: DIVMTQSPLSLPVTPGEPASISCRSSQSLVHTNRNTYLHWYQQKPGQAPRLLIYKVSNRFSGVPDRFSGSGSGTDFTLKISRVEAEDVGVYYCGQGTQVPYTFGQGTKLEIK
notes: one-arm IgG1
B8: CE115HA000/GLS3000 S27eV (antibody, IgG1, name in Kabat numbering, V domains shown)
VH: QVQLVESGGGVVQPGRSLRLSCAASGFTFSNAWMHWVRQAPGKGLEWVAQIKAKSNNYATYYAESVKGRFTISRDDSKNSLYLQMNSLKTEDTAVYYCRYVHYGAYYGVDAWGQGTTVTVSS
VL: DIVMTQSPLSLPVTPGEPASISCRSSQSLVHVNRNTYLHWYQQKPGQAPRLLIYKVSNRFSGVPDRFSGSGSGTDFTLKISRVEAEDVGVYYCGQGTQVPYTFGQGTKLEIK
notes: one-arm IgG1

Biological target: T1, CD3 epsilon homodimer protein (UniProt P07766 23-126)
T1 construct: also called CD3 (CD3 epsilon)
T1 sequence (P07766 23-126): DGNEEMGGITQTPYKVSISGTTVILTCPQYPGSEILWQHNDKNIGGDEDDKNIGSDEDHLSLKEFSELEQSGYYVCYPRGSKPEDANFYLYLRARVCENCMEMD
Assay: SPR, antibody over immobilised CD3e homodimer;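 further: SPR at 25 °C with CD3 epsilon homodimer amine-coupled to a CM4 sensor chip and antibody flowed over as analyte in HBS-EP+ running buffer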

For B1, which “KD ratio to GLS3000” value is on record?
Its value is 1.06.

For B2, which “KD ratio to GLS3000” value is on record?
Its value is 1.32.

For B3, which “KD ratio to GLS3000” value is on record?
Its value is 0.9.

For B4, which “KD ratio to GLS3000” value is on record?
The value was 1.08.

B5 was tested. Which “KD ratio to GLS3000” value did it give?
The value was 1.1.

Which “KD ratio to GLS3000” value does the source give for B6 here?
The value was 1.35.

For B7, which “KD ratio to GLS3000” value is on record?
Its value is 0.98.

Which “KD ratio to GLS3000” value does the source give for B8 here?
The value was 0.95.
